Test results from publication PMC3843637.
“And” between values parts separate entries of the source, which are not always exact repeats. Equal values may be shown once.

How the values were obtained:
[1] = biological target: S3LMH2EEE/S4LMH2 heterotrimer (human) (UniProt P84022); assay: ITC
[2] = biological target: phosphomimetic Smad3 fragment S3LMH2EEE (linker and MH2 domain, amino acids 167 to 425) (human) (UniProt P84022); assay: ITC

B1: MAN1 fragment from amino acids 755 to 911 (MAN1Luhm) (domain or fragment)
chain: DKILVIPSKVWQGQAFHLDRRNSPPNSLTPCLKIRNMFDPVMEIGDQWHLAIQEAILEKCSDNDGIVHIAVDKNSREGCVYVKCLSPEYAGKAFKALHGSWFDGKLVTVKYLRLDRYHHRFPQALTSNTPLKPSNKHMNSMSHLRLRTGLTNSQGSS
Q: B1 was tested. Which Kd [1] did it give?
A: 1.5 µM and 1.37 µM

Q: And the Kd [2]?
A: 1.17 µM and 1.35 µM
